Laboratory results reported in IntAct's records for PubMed 31402609.

B1: Golgin subfamily A member 7B (Homo sapiens), Q2TAP0 (parent)
chain: MATEVHNLQELRRSASLATKVFIQRDYSDGTICQFQTKFPPELDSRIERQLFEETVKTLNGFYAEAEKIGGSSYLEGCLACATAYFIFLCMETHYEKVLKKISRYIQEQNEKIFAPRGLLLTDPVERGMRVIEISIYEDRCSSGSSSSGSSSGSGSSSGGGGGAGAR
B2: Palmitoyltransferase ZDHHC5 (Homo sapiens), Q9C0B5 (parent)
chain: MPAESGKRFKPSKYVPVSAAAIFLVGATTLFFAFTCPGLSLYVSPAVPIYNAIMFLFVLANFSMATFMDPGIFPRAEEDEDKEDDFRAPLYKTVEIKGIQVRMKWCATCRFYRPPRCSHCSVCDNCVEEFDHHCPWVNNCIGRRNYRYFFLFLLSLTAHIMGVFGFGLLYVLYHIEELSGVRTAVTMAVMCVAGLFFIPVAGLTGFHVVLVARGRTTNEQVTGKFRGGVNPFTNGCCNNVSRVLCSSPAPRYLGRPKKEKTIVIRPPFLRPEVSDGQITVKIMDNGIQGELRRTKSKGSLEITESQSADAEPPPPPKPDLSRYTGLRTHLGLATNEDSSLLAKDSPPTPTMYKYRPGYSSSSTSAAMPHSSSAKLSRGDSLKEPTSIAESSRHPSYRSEPSLEPESFRSPTFGKSFHFDPLSSGSRSSSLKSAQGTGFELGQLQSIRSEGTTSTSYKSLANQTRNGSLSYDSLLTPSDSPDFESVQAGPEPDPPLGYTSPFLSARLAQQREAERHPRLVPTGPTHREPSPVRYDNLSRHIVASLQEREKLLRQSPPLPGREEEPGLGDSGIQSTPGSGHAPRTSSSSDDSKRSPLGKTPLGRPAVPRFGKPDGLRGRGVGSPEPGPTAPYLGRSMSYSSQKAQPGVSETEEVALQPLLTPKDEVQLKTTYSKSNGQPKSLGSASPGPGQPPLSSPTRGGVKKVSGVGGTTYEISV
partner: B1 chain

Legend:
[1] = variants of: B1; conditions: with zdhc5_human ZDHHC5, Q9C0B5
[2] = variants of: B1; conditions: with zdhc5_human ZDHHC5, Q9C0B5; remark: listed apart in the source
[3] = variants of: B2; conditions: with gog7b_human GOLGA7B, Q2TAP0
[4] = variants of: B2; conditions: with gog7b_human GOLGA7B, Q2TAP0; remark: listed apart in the source

Variant	effect of a mutation on the interaction [1]	effect of a mutation on the interaction [2]	effect of a mutation on the interaction [3]	effect of a mutation on the interaction [4]
C33A;C78A;C81A;C90A;C141A	with no effect	disrupting interaction strength	–	–
C236A;C237A;C245A	–	–	disrupting interaction strength	–
C134S	–	–	with no effect	decreasing interaction strength
